Measurements as given in paper PMC3320582, “Group A Streptococcus Secreted Esterase Hydrolyzes Platelet-Activating Factor to Impede Neutrophil Recruitment and Facilitate Innate Immune Evasion” (PLoS Pathogens, 2012).

Substrate: [H][C@@](COCCCCCCCCCCCCCCCC)(COP(=O)([O-])OCC[N+](C)(C)C)SC(C)=O
Assay: purified protein
Assay type: biochemical, Homo sapiens
Details: PAF acetylhydrolase assay kit; measured as comparison to SsE

B1: human recombinant plasma PAF acetylhydrolase (Homo sapiens) (protein)
chain: FDWQYINPVAHMKSSAWVNKIQVLMAAASFGQTKIPRGNGPYSVGCTDLMFDHTNKGTFLRLYYPSQDNDRLDTLWIPNKEYFWGLSKFLGTHWLMGNILRLLFGSMTTPANWNSPLRPGEKYPLVVFSHGLGAFRTLYSAIGIDLASHGFIVAAVEHRDRSASATYYFKDQSAAEIGDKSWLYLRTLKQEEETHIRNEQVRQRAKECSQALSLILDIDHGKPVKNALDLKFDMEQLKDSIDREKIAVIGHSFGGATVIQTLSEDQRFRCGIALDAWMFPLGDEVYSRIPQPLFFINSEYFQYPANIIKMKKCYSPDKERKMITIRGSVHQNFADFTFATGKIIGHMLKLKGDIDSNVAIDLSNKASLAFLQKHLGLHKDFDQWDCLIEGDDENLIPGTNINTTNQHIMLQNSSGIEKYN
notes: commercial recombinant protein (Cayman Chemical)
How did the Km turn out when B1 was run?
Its Km is 8.0 µM.

What about the kcat of the same protein?
Its kcat is 15.4 s⁻¹.
